Data taken from EP0251446B1, “Non-human Carbonyl hydrolase mutants, DNA sequences and vectors encoding same and hosts transformed with said vectors” (GENENCOR INTERNATIONAL, INC., priority 1986, dated 1988).

How the values were obtained:
Assay type in all cases: biochemical, B. amyloliquefaciens
[1] = substrate: C[C@H](NC(=O)CCC(=O)O)C(=O)N[C@@H](C)C(=O)N1CCC[C@H]1C(=O)N[C@@H](CCC(=O)O)C(=O)Nc1ccc([N+](=O)[O-])cc1; assay: Kinetics of p-nitroanilide substrate hydrolysis, K166
Source text: (§1) Wild-type subtilisin was purified from B. subtilis culture supernatants expressing the B. amyloliquefaciens subtilisin gene (Wells, J.A., et al. (1983) Nucleic Acids Res. 11, 7911-7925) as previously described (Estell, D.A., et al. (1985) J. Biol. Chem. 260, 6518-6521). Details of the synthesis of tetrapeptide substrates having the form succinyl-L-AlaL-AlaL-ProL-[X]-p-nitroanilide (where X is the P1 amino acid) are described by DelMar, E.G., et al. (1979) Anal. Biochem. 99, 316-320. Kinetic parameters, Km(M) and kcat-(s-^1) were measured using a modified progress curve analysis (Estell, D.A., et al. (1985) J. Biol. Chem. 260, 6518-6521). Briefly, plots of rate versus product concentration were fit to the differential form of the rate equation using a non-linear regression algorithm. Errors in kcat and Km for all values reported are less than five percent. The various substrates in Table VIII are ranged in order of decreasing hydrophobicity. Nozaki, Y. (1971), J. Biol. Chem. 246, 2211-2217; Tanford C. (1978) Science 200, 1012).
(§2) The construction of subtilisin mutants containing the substitution of the ionic amino acids Asp, Asn, Gln, Lys and Ang are disclosed in EPO Publication No. 0130756. The present example describes the construction of the mutant subtilisin containing Glu at position 166 (E166) and presents substrate specificity data on these mutants. Further data on position 166 and 156 single and double mutants is presented infra.
(§3) Each of these mutants was analyzed with the tetrapeptide substrates, succinyl-L-AlaL-AlaProL-X-p-nitroanilide, where X was Phe, Ala and Glu.
(§4) K166 is a common replacement amino acid in the 156/166 mutants described herein. The replacement of Lys for GIy166 was achieved by using the synthetic DNA cassette at the top right of Figure 21 which contained the triplet AAA for NNN. This produced fragment 2 with Lys substituting for GIy166.
(§5) These mutants, the single mutant K166, and the S156 and Q156 mutants of Example 8 were analyzed for substitute specificity against synthetic polypeptides containing Phe or Glu as the P-1 substrate residue.

[2] = substrate: C[C@H](NC(=O)CCC(=O)O)C(=O)N[C@@H](C)C(=O)N1CCC[C@H]1C(=O)N[C@@H](Cc1ccccc1)C(=O)Nc1ccc([N+](=O)[O-])cc1; assay: as above; details: K166
Source text: as §1, §2, §3, §4, §5

[3] = substrate: CSCC[C@H](NC(=O)[C@@H]1CCCN1C(=O)[C@H](C)NC(=O)[C@H](C)NC(=O)CCC(=O)O)C(=O)Nc1ccc([N+](=O)[O-])cc1; assay: as above; details: other: Table XIV, 156 Glu / 166 Lys; value in parentheses; synthetic substrate with label as P-1 amino acid
[4] = substrate: C[C@H](NC(=O)CCC(=O)O)C(=O)N[C@@H](C)C(=O)N1CCC[C@H]1C(=O)N[C@@H](CCC(N)=O)C(=O)Nc1ccc([N+](=O)[O-])cc1; assay: as above; details: other: Table XIV, 156 Glu / 166 Lys; value in parentheses; synthetic substrate with label as P-1 amino acid
[5] = substrate: C[C@H](NC(=O)CCC(=O)O)C(=O)N[C@@H](C)C(=O)N1CCC[C@H]1C(=O)N[C@@H](CCCCN)C(=O)Nc1ccc([N+](=O)[O-])cc1; assay: as above; details: other: Table XIV, 156 Glu / 166 Lys; value in parentheses; synthetic substrate with label as P-1 amino acid
[6] = substrate: CSCC[C@H](NC(=O)[C@@H]1CCCN1C(=O)[C@H](C)NC(=O)[C@H](C)NC(=O)CCC(=O)O)C(=O)Nc1ccc([N+](=O)[O-])cc1; assay: Kinetics of p-nitroanilide substrate hydrolysis, D166; details: other: Table XIV, 156 Glu / 166 Asp; value in parentheses; synthetic substrate with label as P-1 amino acid
Source text: as §1, §2, §3

[7] = substrate: C[C@H](NC(=O)CCC(=O)O)C(=O)N[C@@H](C)C(=O)N1CCC[C@H]1C(=O)N[C@@H](CCC(N)=O)C(=O)Nc1ccc([N+](=O)[O-])cc1; assay: as above; details: other: Table XIV, 156 Glu / 166 Asp; value in parentheses; synthetic substrate with label as P-1 amino acid
Source text: as §1, §2, §3

[8] = substrate: C[C@H](NC(=O)CCC(=O)O)C(=O)N[C@@H](C)C(=O)N1CCC[C@H]1C(=O)N[C@@H](CCCCN)C(=O)Nc1ccc([N+](=O)[O-])cc1; assay: as above; details: other: Table XIV, 156 Glu / 166 Asp; value in parentheses; synthetic substrate with label as P-1 amino acid
Source text: as §1, §2, §3

[9] = substrate: CSCC[C@H](NC(=O)[C@@H]1CCCN1C(=O)[C@H](C)NC(=O)[C@H](C)NC(=O)CCC(=O)O)C(=O)Nc1ccc([N+](=O)[O-])cc1; assay: Kinetics of p-nitroanilide substrate hydrolysis, S156/K166; details: other: Table XIV, 156 Ser / 166 Lys; value in parentheses; synthetic substrate with label as P-1 amino acid
Source text: as §1
(§6) The multiple mutants were produced by combining fragments 1, 2 and 3 as described in Example 8. The mutants Q156/K166 and S156/K166 were selectively generated by differential phosphorylation as described. Alternatively, the double 156/166 mutants, c.f. Q156/K166 and S156/K166, were prepared by ligation of the 4.6kb Sacl-BamHI fragment from the relevant p156 plasmid containing the 0.6kb Sacl-BamHI fragment from the relevant p166 plasmid.
as §5
(§7) To isolate the contribution of electrostatics to substrate specificity from other chemical binding forces, these various single and double mutants were analyzed for their ability to bind and cleave synthetic substrates containing Glu, Gln, Met and Lys as the P-1 substrate amino acid. This permitted comparisons between side-chains that were more sterically similar but differed in charge (e.g., Glu versus Gln, Lys versus Met). Similarly, mutant enzymes were assayed against homologous P-1 substrates that were most sterically similar but differed in charge (Table XIV).

[10] = substrate: C[C@H](NC(=O)CCC(=O)O)C(=O)N[C@@H](C)C(=O)N1CCC[C@H]1C(=O)N[C@@H](CCC(=O)O)C(=O)Nc1ccc([N+](=O)[O-])cc1; assay: as above
Source text: as §1, §6, §5, §7

[11] = substrate: C[C@H](NC(=O)CCC(=O)O)C(=O)N[C@@H](C)C(=O)N1CCC[C@H]1C(=O)N[C@@H](CCC(N)=O)C(=O)Nc1ccc([N+](=O)[O-])cc1; assay: as above; details: other: Table XIV, 156 Ser / 166 Lys; value in parentheses; synthetic substrate with label as P-1 amino acid
Source text: as §1, §6, §5, §7

[12] = substrate: C[C@H](NC(=O)CCC(=O)O)C(=O)N[C@@H](C)C(=O)N1CCC[C@H]1C(=O)N[C@@H](CCCCN)C(=O)Nc1ccc([N+](=O)[O-])cc1; assay: as above; details: other: Table XIV, 156 Ser / 166 Lys; value in parentheses; synthetic substrate with label as P-1 amino acid
Source text: as §1, §6, §5, §7

[13] = substrate: C[C@H](NC(=O)CCC(=O)O)C(=O)N[C@@H](C)C(=O)N1CCC[C@H]1C(=O)N[C@@H](Cc1ccccc1)C(=O)Nc1ccc([N+](=O)[O-])cc1; assay: as above; details: other: Table XIII, S156/K166; synthetic substrate with label as P-1 residue
Source text: as §1, §6, §5, §7

[14] = substrate: CSCC[C@H](NC(=O)[C@@H]1CCCN1C(=O)[C@H](C)NC(=O)[C@H](C)NC(=O)CCC(=O)O)C(=O)Nc1ccc([N+](=O)[O-])cc1; assay: Kinetics of p-nitroanilide substrate hydrolysis, Q156/K166; details: other: Table XIV, 156 Gln / 166 Lys; value in parentheses; synthetic substrate with label as P-1 amino acid
Source text: as §1, §6, §5, §7

[15] = substrate: C[C@H](NC(=O)CCC(=O)O)C(=O)N[C@@H](C)C(=O)N1CCC[C@H]1C(=O)N[C@@H](CCC(=O)O)C(=O)Nc1ccc([N+](=O)[O-])cc1; assay: as above
Source text: as §1, §6, §5, §7

[16] = substrate: C[C@H](NC(=O)CCC(=O)O)C(=O)N[C@@H](C)C(=O)N1CCC[C@H]1C(=O)N[C@@H](CCC(N)=O)C(=O)Nc1ccc([N+](=O)[O-])cc1; assay: as above; details: other: Table XIV, 156 Gln / 166 Lys; value in parentheses; synthetic substrate with label as P-1 amino acid
Source text: as §1, §6, §5, §7

[17] = substrate: C[C@H](NC(=O)CCC(=O)O)C(=O)N[C@@H](C)C(=O)N1CCC[C@H]1C(=O)N[C@@H](CCCCN)C(=O)Nc1ccc([N+](=O)[O-])cc1; assay: as above; details: other: Table XIV, 156 Gln / 166 Lys; value in parentheses; synthetic substrate with label as P-1 amino acid
Source text: as §1, §6, §5, §7

[18] = substrate: C[C@H](NC(=O)CCC(=O)O)C(=O)N[C@@H](C)C(=O)N1CCC[C@H]1C(=O)N[C@@H](Cc1ccccc1)C(=O)Nc1ccc([N+](=O)[O-])cc1; assay: as above; details: other: Table XIII, Q156/K166; synthetic substrate with label as P-1 residue
Source text: as §1, §6, §5, §7

[19] = other: Table XIII, K166, synthetic substrate with label as P-1 residue
[20] = other: Table XIII, synthetic substrate with label as P-1 residue
[21] = other: Table XIII, S156/K166, synthetic substrate with label as P-1 residue
[22] = other: Table XIII, Q156/K166, synthetic substrate with label as P-1 residue

B1: B. amyloliquefaciens subtilisin variant K166 (Gly166 to Lys) (Bacillus amyloliquefaciens; G273K) (protein)
chain: AQSVPYGVSQIKAPALHSQGYTGSNVKVAVIDSGIDSSHPDLKVAGGASMVPSETNPFQDNNSHGTHVAGTVAALNNSIGVLGVAPSASLYAVKVLGADGSGQYSWIINGIEWAIANNMDVINMSLGGPSGSAALKAAVDKAVASGVVVVAAAGNEGTSGSSSTVKYPGKYPSVIAVGAVDSSNQRASFSSVGPELDVMAPGVSIQSTLPGNKYGAYNGTSMASPHVAGAAALILSKHPNWTNTQVRSSLENTTTKLGDSFYYGKGLINVQAAAQ
notes: at various amino acid residues within the mature form of the subtilisin molecule; made in house; host or cells: Bacillus subtilis BG2036
Km [1, 19]: 56 µM | kcat [1, 19]: 0.70 s-^1 | kcat/Km [1, 19]: 12000 M⁻¹ s⁻¹ | Km ([1]; other: Table XIV, 156 Glu / 166 Lys, value in parentheses, synthetic substrate with label as P-1 amino acid): 56.2 µM | Km [2, 20]: 40 µM | kcat [2, 20]: 20.00 s-^1 | kcat/Km [2, 20]: 520000 M⁻¹ s⁻¹ | Km ([2]; other: Table XIX): 37 µM | kcat ([2]; other: Table XIX): 21 s-^1 | Km [3]: 35.5 µM | Km [4]: 132 µM | Km [5]: 1170 µM

B2: B. amyloliquefaciens subtilisin variant D166 (Gly166 to Asp) (Bacillus amyloliquefaciens; G273D) (protein)
chain: AQSVPYGVSQIKAPALHSQGYTGSNVKVAVIDSGIDSSHPDLKVAGGASMVPSETNPFQDNNSHGTHVAGTVAALNNSIGVLGVAPSASLYAVKVLGADGSGQYSWIINGIEWAIANNMDVINMSLGGPSGSAALKAAVDKAVASGVVVVAAAGNEGTSGSSSTVDYPGKYPSVIAVGAVDSSNQRASFSSVGPELDVMAPGVSIQSTLPGNKYGAYNGTSMASPHVAGAAALILSKHPNWTNTQVRSSLENTTTKLGDSFYYGKGLINVQAAAQ
notes: as for B1
Km [6]: 1820 µM | Km [7]: 2750 µM | Km [8]: 1000 µM

B3: B. amyloliquefaciens subtilisin variant S156/K166 (Bacillus amyloliquefaciens; E263S/G273K) (protein)
chain: AQSVPYGVSQIKAPALHSQGYTGSNVKVAVIDSGIDSSHPDLKVAGGASMVPSETNPFQDNNSHGTHVAGTVAALNNSIGVLGVAPSASLYAVKVLGADGSGQYSWIINGIEWAIANNMDVINMSLGGPSGSAALKAAVDKAVASGVVVVAAAGNSGTSGSSSTVKYPGKYPSVIAVGAVDSSNQRASFSSVGPELDVMAPGVSIQSTLPGNKYGAYNGTSMASPHVAGAAALILSKHPNWTNTQVRSSLENTTTKLGDSFYYGKGLINVQAAAQ
notes: at various amino acid residues within the mature form of the subtilisin molecule; made in house
Km [9]: 12.6 µM | Km [10, 21]: 39 µM | kcat [10, 21]: 0.60 s-^1 | kcat/Km [10, 21]: 16000 M⁻¹ s⁻¹ | Km ([10]; other: Table XIV, 156 Ser / 166 Lys, value in parentheses, synthetic substrate with label as P-1 amino acid): 39.8 µM | Km [11]: 115 µM | Km [12]: 1450 µM | Km [13]: 18 µM | kcat [13]: 30.00 s-^1 | kcat/Km [13]: 1.6e+06 M⁻¹ s⁻¹

B4: B. amyloliquefaciens subtilisin variant Q156/K166 (Bacillus amyloliquefaciens; E263Q/G273K) (protein)
chain: AQSVPYGVSQIKAPALHSQGYTGSNVKVAVIDSGIDSSHPDLKVAGGASMVPSETNPFQDNNSHGTHVAGTVAALNNSIGVLGVAPSASLYAVKVLGADGSGQYSWIINGIEWAIANNMDVINMSLGGPSGSAALKAAVDKAVASGVVVVAAAGNQGTSGSSSTVKYPGKYPSVIAVGAVDSSNQRASFSSVGPELDVMAPGVSIQSTLPGNKYGAYNGTSMASPHVAGAAALILSKHPNWTNTQVRSSLENTTTKLGDSFYYGKGLINVQAAAQ
notes: as for B3
Km [14]: 20.9 µM | Km [15, 22]: 31 µM | kcat [15, 22]: 1.60 s-^1 | kcat/Km [15, 22]: 50000 M⁻¹ s⁻¹ | Km ([15]; other: Table XIV, 156 Gln / 166 Lys, value in parentheses, synthetic substrate with label as P-1 amino acid): 31.6 µM | Km [16]: 209 µM | Km [17]: 1780 µM | Km [18]: 19 µM | kcat [18]: 30.00 s-^1 | kcat/Km [18]: 1.6e+06 M⁻¹ s⁻¹
